Biological target: T1, ligand binding domain of the nuclear receptor Fushi Tarazu factor-1 (LBD FTZ-F1) (Drosophila, UniProt P33244 786-1027, 15N-labelled in the experiment with the peptide; unlabelled in the experiment with GCEC)
T1 construct: cDNA synthesised (Gene Art); Cloned into pET-15b; residues left by the thrombin site are not described; Purified protein runs as a 26.5 kDa globular protein; also called FTZ-F1 LBD; LDB FTZ-F1 (786-1027); source: E. coli BL21(DE3), soluble fraction, purified (Ni-NTA, thrombin, second IMAC, SEC on Superdex75)
T1 sequence (looked up): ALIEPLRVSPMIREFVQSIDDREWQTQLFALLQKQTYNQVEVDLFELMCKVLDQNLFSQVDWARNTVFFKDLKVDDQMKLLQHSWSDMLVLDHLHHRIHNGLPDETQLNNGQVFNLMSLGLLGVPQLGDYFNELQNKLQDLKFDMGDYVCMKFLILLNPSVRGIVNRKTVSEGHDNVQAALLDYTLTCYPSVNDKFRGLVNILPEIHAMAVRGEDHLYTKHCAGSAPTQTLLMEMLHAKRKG
Assay: NMR titration; 1H-15N HSQC chemical shift perturbation, 15N-labelled LBD FTZ-F1 after incubation with the … peptide (concentration set by its solubility limit), buffer F with 10% D2O, 22 °C, 800 MHz
Conditions: both partners purified

B1: 9-residue GCEC peptide (GCE^PEP) (peptide)
peptide: LRLIQNLQK
notes: stretch of the C-terminal region of GCE, D. melanogaster, with the novel NR-box (LIXXL motif; LIQNL); source: synthetic peptide (PSL GmbH, Heidelberg)
  binding result: binds
